One block for each binder: values may come before it.
Legend:
[1] = target: T1, human CLDN4 (Claudin-4) expressed by human cancer cell lines (Capan-2, HPAF-II, MCF7, HT-29, SW480, 22Rv1, DU … (human, UniProt O14493 1-209)); experiment: FCM on live Capan-2 cells (express CLDN4), 5 µg/ml
T1 construct: Endogenous protein on cell lines; MCF7 is said to express both CLDN3 and CLDN4; also called CLDN4 expressed in breast cancer cells, colorectal cancer cells and prostate cancer cells
T1 sequence: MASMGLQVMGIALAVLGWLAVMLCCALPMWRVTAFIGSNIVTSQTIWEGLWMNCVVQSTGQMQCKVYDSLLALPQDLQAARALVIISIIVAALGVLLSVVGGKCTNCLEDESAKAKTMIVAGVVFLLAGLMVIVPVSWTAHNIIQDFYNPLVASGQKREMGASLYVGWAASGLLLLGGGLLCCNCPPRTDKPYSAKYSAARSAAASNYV
Procedure: (§1) Pancreatic cancer cell line Capan-2 which expresses CLDN4 was used as the evaluation cell of cKM3900, and a breast cancer cell line MCF7 which expresses both of CLDN3 and CLDN4 was used as the evaluation cell of cKM3907. The cells were cultured for 3 to 4 days and peeled off using 0.02% EDTA solution (manufactured by Nacalai Tesque) to recover the resulting cells. The thus recovered cells were washed with PBS and, in order to avoid nonspecific adsorption of antibodies, blocked using BSA-PBS at ice temperature for 30 minutes. The cells were dispensed at 1 to 5×10⁵ cells/100 μl BSA-PBS into a 96-well U bottom plate and centrifuged (1,500 rpm, 5 minutes), the supernatant was removed and then 5 μg/ml of a negative control antibody cKM3034 (anti-FGF8 human chimeric antibody) [US 2004/0091480], an anti-CLDN4 monoclonal antibody KM3900 or KM3907 or an anti-CLDN4 human chimeric antibody cKM3900 or cKM3907 was dispensed as the primary antibody at 100 μl/well and allowed to react at ice temperature for 60 minutes. […] After washing again once with PBS and subsequently suspending in PBS, the fluorescent intensity was measured by FCM (manufactured by Beckman Coulter).

[2] = target: T1, human CLDN4 (Claudin-4) expressed by …; experiment: FCM on live MCF7 cells (express both CLDN3 and CLDN4), 5 µg/ml
Procedure: as §1

- binding result [1]: binds
B1: anti-CLDN4 human chimeric antibody cKM3900 (antibody, V domains shown)
VH: EVQLQQSGPELVKPGASVKISCKASGYTFTDYYMNWVKQSHGKSLEWIGDVVPNNGVPTYNQKFKGKATLTVDKSSSTAYMELRSLTSEDSAVYYCARPHYYYAGRSGAMDYWGQGTSVTVSS
VL: QIVLTQSPAIMSASLGERVTMTCTASSTVSSTYLHWYQQKPGSSPKLWIYSTSNLASGVPARFSGSGSGTSYSLTISSMEAEDAATYYCHQYHRSPPTFGGGTKLEIK
notes: Human chimeric IgG: mouse V regions of KM3900 joined to the human CH and CL of vector pKANTEX93 (WO 97/10354); also called cKM3900-93 (expression vector)

- binding result [2]: binds
B2: anti-CLDN4 human chimeric antibody cKM3907 (antibody, V domains shown)
VH: QVQLQQSGPELVKPGASVKISCKASGYAISTSWMNWVKQRPGKGLEWIGRINPGDGNTNYNGKFMAKATLTADKPSSTAYMQLSSLTSEDSAVYFCTRGDRWSGAMDYWGQGTSVTVSS
VL: GNVLTQSPAIMSASPGEKVTMTCRASSSVSSSYLHWYQQKSGASPKLWIYSTSNLASGVPVRFSGSGSGTSYSLTISSVEAEDAATYYCQQYSGFPLTFGAGTKLELK
notes: Human chimeric IgG: mouse V regions of KM3907 joined to the human CH and CL of vector pKANTEX93 (WO 97/10354); also called cKM3907-93 (expression vector)

From patent US20090202556A1 (Kyowa Kirin, published 2009)
